What is called EC50 is the concentration needed to bring the measured effect to its halfway point. High values mean weaker potency, low ones greater potency. The term IC50 denotes the concentration that inhibits the measured activity by half. A lower IC50 goes with higher potency.

EC50 and IC50 data for one molecule are collected here from CN112500481A (SHANXI PROVINCIAL PEOPLES HOSPITAL, dated 2021).

In one experiment the target is 新冠病毒RBD抗原 (表达的RBD蛋白) (SARS-CoV-2, UniProt P0DTC2 319-541).
The target of a further experiment is RBD-tag1 (SARS-CoV-2, UniProt P0DTC2 319-541).

B1: 23D52 (antibody, V domains shown)
VH: EVQLVESGGGLVQPGGSLRLSCAASGITVSSNYMNWVRQAPGKGLEWVSVLYSGGSTDYADSVKGRFTISRDNSKNTLYLQMNSLRAEDTAVYYCARDLVVYGMDVWGQGTTVTVSS
VL: DIQLTQSPSFLSASVGDRVTITCRASQGISSYLAWYQQTPGKAPKLLIYAASTLQSGVPSRFSGSGSGTEFTLTISSLQPEDFATYYCQQLNSYPFTFGPGTKVHIK
notes: also called 抗人新冠病毒抗体23D52
Regarding B1, the EC50 with 新冠病毒RBD抗原 (表达的RBD蛋白) is 0.0299 µg/mL. This molecule also showed a half-maximal inhibitory concentration (IC50) with RBD-tag1 of 0.111 µg/mL.
